Among the data in article doi:10.1101/2021.01.27.428421 are fold signal values, retold here.

This test has as its target tdPCP-GFP-VPR (PP7 (from the protein's name) | not stated). Put plainly: fluorescence intensity at the reporter gene array in cells. On the technique in general: A reporter such as luciferase makes a cellular process visible.

tdPCP-GFP-VPR: the fold signal at the reporter array against tdPCP-GFP-VP16 was 1.9 fold.
